From article PMC7795263, “Chaperone-Assisted Mitotic Actin Remodeling by BAG3 and HSPB8 Involves the Deacetylase HDAC6 and Its Substrate Cortactin” (International Journal of Molecular Sciences, 2020) come the findings set out here.

The test addresses T1, myc-cortactin (UniProt Q60598 1-546).
T1 construct: cortactin, myc-tagged plasmid, gift from Dr Zhan (Holland Laboratory, American Red Cross); human cortactin would be Q14247; The PLA used an anti-cortactin antibody, which may also detect endogenous human cortactin of HeLa cells; source: HeLa (parental), transfected (Lipofectamine 2000), in fixed cells
In words: proximity ligation; Duolink in situ PLA with anti-GFP and anti-cortactin antibodies in fixed HeLa cells cotransfected with GFP-HDAC6 and myc-cortactin; asynchronous or synchronized in mitosis (double thymidine block, release 8-9 h); siCtl or siBAG3; PLA foci per cell counted by confocal microscopy. The note with it: partners not purified.

T1 sequence (Q60598 whole entry): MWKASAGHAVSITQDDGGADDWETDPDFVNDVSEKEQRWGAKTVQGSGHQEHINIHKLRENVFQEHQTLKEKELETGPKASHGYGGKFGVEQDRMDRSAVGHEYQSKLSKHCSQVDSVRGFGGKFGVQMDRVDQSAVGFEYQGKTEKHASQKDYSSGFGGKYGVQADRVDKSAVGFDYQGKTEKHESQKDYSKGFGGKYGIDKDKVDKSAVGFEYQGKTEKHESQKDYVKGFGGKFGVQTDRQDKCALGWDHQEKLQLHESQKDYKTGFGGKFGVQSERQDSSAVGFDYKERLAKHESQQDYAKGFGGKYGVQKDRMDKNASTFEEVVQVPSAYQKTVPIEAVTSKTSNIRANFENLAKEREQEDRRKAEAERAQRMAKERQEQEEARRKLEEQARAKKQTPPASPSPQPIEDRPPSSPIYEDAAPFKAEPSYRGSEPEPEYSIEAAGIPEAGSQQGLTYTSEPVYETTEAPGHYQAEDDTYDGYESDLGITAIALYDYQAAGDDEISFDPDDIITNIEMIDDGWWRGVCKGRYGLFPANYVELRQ

B1: GFP-HDAC6 (histone deacetylase 6, WT) (enzyme, UniProt Q9UBN7 1-1215, looked up)
chain: MTSTGQDSTTTRQRRSRQNPQSPPQDSSVTSKRNIKKGAVPRSIPNLAEVKKKGKMKKLGQAMEEDLIVGLQGMDLNLEAEALAGTGLVLDEQLNEFHCLWDDSFPEGPERLHAIKEQLIQEGLLDRCVSFQARFAEKEELMLVHSLEYIDLMETTQYMNEGELRVLADTYDSVYLHPNSYSCACLASGSVLRLVDAVLGAEIRNGMAIIRPPGHHAQHSLMDGYCMFNHVAVAARYAQQKHRIRRVLIVDWDVHHGQGTQFTFDQDPSVLYFSIHRYEQGRFWPHLKASNWSTTGFGQGQGYTINVPWNQVGMRDADYIAAFLHVLLPVALEFQPQLVLVAAGFDALQGDPKGEMAATPAGFAQLTHLLMGLAGGKLILSLEGGYNLRALAEGVSASLHTLLGDPCPMLESPGAPCRSAQASVSCALEALEPFWEVLVRSTETVERDNMEEDNVEESEEEGPWEPPVLPILTWPVLQSRTGLVYDQNMMNHCNLWDSHHPEVPQRILRIMCRLEELGLAGRCLTLTPRPATEAELLTCHSAEYVGHLRATEKMKTRELHRESSNFDSIYICPSTFACAQLATGAACRLVEAVLSGEVLNGAAVVRPPGHHAEQDAACGFCFFNSVAVAARHAQTISGHALRILIVDWDVHHGNGTQHMFEDDPSVLYVSLHRYDHGTFFPMGDEGASSQIGRAAGTGFTVNVAWNGPRMGDADYLAAWHRLVLPIAYEFNPELVLVSAGFDAARGDPLGGCQVSPEGYAHLTHLLMGLASGRIILILEGGYNLTSISESMAACTRSLLGDPPPLLTLPRPPLSGALASITETIQVHRRYWRSLRVMKVEDREGPSSSKLVTKKAPQPAKPRLAERMTTREKKVLEAGMGKVTSASFGEESTPGQTNSETAVVALTQDQPSEAATGGATLAQTISEAAIGGAMLGQTTSEEAVGGATPDQTTSEETVGGAILDQTTSEDAVGGATLGQTTSEEAVGGATLAQTTSEAAMEGATLDQTTSEEAPGGTELIQTPLASSTDHQTPPTSPVQGTTPQISPSTLIGSLRTLELGSESQGASESQAPGEENLLGEAAGGQDMADSMLMQGSRGLTDQAIFYAVTPLPWCPHLVAVCPIPAAGLDVTQPCGDCGTIQENWVCLSCYQVYCGRYINGHMLQHHGNSGHPLVLSYIDLSAWCYYCQAYVHHQALLDVKNIAHQNKFGEDMPHPH
notes: histone deacetylase 6 (HDAC6), wild type, expressed from peGFP.N1-HDAC6 WT (Addgene 36188); The pEGFP-N1 vector usually places GFP at the C-terminus of the insert (surmised); The Addgene 36188 insert is recalled to be human HDAC6; also called peGFP.N1-HDAC6 WT; source: HeLa (parental), transfected (Lipofectamine 2000), in fixed cells
As to B1, the “fold change of PLA foci per cell, siBAG3 mitotic cells against siCtl mitotic cells” value is approximately 2 fold.
